Earlier results, collected in publication PMC11658791.
Like-named read-outs stand apart in the source and are kept apart here.

How the values were obtained:
[1] = biological target: Colicin M (Cma) (Escherichia coli) (UniProt P05820)
TonB (Escherichia coli) [2] = biological target: TonB (Escherichia coli) (UniProt P02929)
TonB (Escherichia coli) [3] = biological target: TonB (Escherichia coli) (UniProt P02929); experiment: ITC
[4] = biological target: FpvAI (Pseudomonas aeruginosa) (UniProt P48632)
UniProt P48632, sequence (P48632 44-815): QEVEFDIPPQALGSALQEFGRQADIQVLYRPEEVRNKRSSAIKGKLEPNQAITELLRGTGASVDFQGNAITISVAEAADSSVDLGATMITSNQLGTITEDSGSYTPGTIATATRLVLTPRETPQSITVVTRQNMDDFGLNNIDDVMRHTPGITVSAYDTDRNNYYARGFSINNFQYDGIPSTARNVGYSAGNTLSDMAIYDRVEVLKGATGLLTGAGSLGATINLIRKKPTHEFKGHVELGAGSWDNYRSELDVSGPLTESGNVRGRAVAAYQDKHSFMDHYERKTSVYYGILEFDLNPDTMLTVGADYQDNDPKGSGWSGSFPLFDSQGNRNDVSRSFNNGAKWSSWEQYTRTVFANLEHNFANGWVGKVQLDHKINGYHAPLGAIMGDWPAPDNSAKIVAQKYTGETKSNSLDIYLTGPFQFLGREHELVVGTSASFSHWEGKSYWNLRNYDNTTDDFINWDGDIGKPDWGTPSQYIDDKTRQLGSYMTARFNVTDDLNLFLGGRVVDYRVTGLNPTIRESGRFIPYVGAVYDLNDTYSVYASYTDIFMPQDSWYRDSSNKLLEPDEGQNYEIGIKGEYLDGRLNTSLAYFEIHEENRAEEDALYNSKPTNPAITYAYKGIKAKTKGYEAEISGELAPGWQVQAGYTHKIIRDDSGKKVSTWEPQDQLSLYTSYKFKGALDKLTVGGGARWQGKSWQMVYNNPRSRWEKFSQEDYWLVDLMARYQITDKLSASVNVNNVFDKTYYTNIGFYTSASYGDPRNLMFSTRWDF

UniProt P02929, sequence (P02929 whole entry): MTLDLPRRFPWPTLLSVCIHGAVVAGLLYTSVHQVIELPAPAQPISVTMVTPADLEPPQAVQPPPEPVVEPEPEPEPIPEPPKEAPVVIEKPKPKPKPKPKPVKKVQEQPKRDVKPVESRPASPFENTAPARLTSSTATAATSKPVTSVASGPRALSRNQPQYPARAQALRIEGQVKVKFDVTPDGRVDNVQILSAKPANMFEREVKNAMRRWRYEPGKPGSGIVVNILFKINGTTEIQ
UniProt P05820, sequence (P05820 whole entry): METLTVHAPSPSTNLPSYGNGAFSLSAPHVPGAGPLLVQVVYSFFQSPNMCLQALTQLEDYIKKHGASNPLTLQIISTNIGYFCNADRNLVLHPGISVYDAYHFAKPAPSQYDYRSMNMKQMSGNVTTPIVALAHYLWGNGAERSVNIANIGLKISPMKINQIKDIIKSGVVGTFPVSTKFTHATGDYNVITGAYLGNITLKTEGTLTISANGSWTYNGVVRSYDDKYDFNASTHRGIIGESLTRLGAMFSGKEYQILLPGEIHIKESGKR

| Substance | Kd [1] [nM] | Kd (TonB (Escherichia coli) [2]) [nM] | Kd (TonB (Escherichia coli) [3]) [nM] | Kd [4] [nM] |
| --- | --- | --- | --- | --- |
| FhuA (from UniProt P06971) | 3.5 | 20 | 200 | – |
| Pyocin S2 (pyoS2NTD) N-terminal domain (from UniProt Q06584) | – | – | – | 0.24 |
